The results in this text go back to patent US20120088722A1.

Ends that are not written are not given here.

In assay [1] the target is hypertrophic cartilage tissue extract. Briefly: fluorescent peptide (100 nM) binding to plate-dried cartilage CHAPS extract, reference scrambled peptide.
Assay [2] concerns the target resting cartilage tissue extract. Described as above.
For assay [3], the target named is extracellular matrix of whole cell primary chondrocyte cultures. Briefly: fluorescent peptide binding to extracellular matrix of hypertrophic chondrocyte monolayer cultures, reference scrambled peptide.

Consider LRGETMIFKD (also: fluorescent label (label and position not given here)) [MMP13-10 peptide (amino acids 17-26 of SEQ ID NO: 1)], for which the fold binding over scrambled peptide control in assay [1] and in assay [2] was less than 2 fold each time. Further, the fold binding compared to scrambled peptide in assay [3] is 4 fold.

Regarding ELGLPKEVKKISAAVHFED (also: fluorescent-labeled in binding assay, label and position not given here) [MMP13-19 peptide (amino acids 93-111 of SEQ ID NO: 1)], the fold binding over scrambled peptide control in assay [1] worked out at 9 fold; in assay [2] it was 5 fold. The fold binding compared to scrambled peptide in assay [3] came out at 8 fold.
